The values that follow come from publication PMC2195846.

This assay concerns the target Full-length Daxx linked to the Gal4 DNA binding domain (pAS2-1-Daxx) (mouse) (UniProt O35613). The experiment in a line: two-hybrid.
Chain of UniProt O35613 (O35613 whole entry, the tested form may be a part): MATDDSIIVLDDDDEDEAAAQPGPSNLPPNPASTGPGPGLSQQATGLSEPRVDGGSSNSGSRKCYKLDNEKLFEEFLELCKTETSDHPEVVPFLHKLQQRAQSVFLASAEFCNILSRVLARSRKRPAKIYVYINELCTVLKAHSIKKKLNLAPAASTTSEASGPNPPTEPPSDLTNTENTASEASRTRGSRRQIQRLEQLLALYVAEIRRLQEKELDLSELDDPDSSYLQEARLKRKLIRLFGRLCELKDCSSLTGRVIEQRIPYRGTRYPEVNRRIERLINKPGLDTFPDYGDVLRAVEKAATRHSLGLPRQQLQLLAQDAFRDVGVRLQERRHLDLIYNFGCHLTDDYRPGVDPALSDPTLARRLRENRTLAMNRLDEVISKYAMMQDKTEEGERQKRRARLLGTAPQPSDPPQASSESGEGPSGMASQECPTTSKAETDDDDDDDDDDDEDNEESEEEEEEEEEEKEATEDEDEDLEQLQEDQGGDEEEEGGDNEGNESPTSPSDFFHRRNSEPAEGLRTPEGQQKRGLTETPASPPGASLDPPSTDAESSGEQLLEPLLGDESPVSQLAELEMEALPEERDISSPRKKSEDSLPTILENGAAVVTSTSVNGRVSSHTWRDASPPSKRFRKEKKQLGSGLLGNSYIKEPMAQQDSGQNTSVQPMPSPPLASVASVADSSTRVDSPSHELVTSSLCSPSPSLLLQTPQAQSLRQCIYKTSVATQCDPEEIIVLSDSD

With “Full-length PML linked to the Gal4 activation domain (pACT-2-PML) (from UniProt P29590 1-882) (natural protein)”, the β-galactosidase expression, fold over the single-transformed colonies was 50 fold.
